Patent publication US20240141072A1 (published 2024)
Residue numbers refer to the chain shown, from its start.

T1: biotinylated human DLL3 protein expressed as a human IgG1 fusion protein (human, UniProt Q9NYJ7 27-492, limits assumed, biotinylated)
T1 sequence: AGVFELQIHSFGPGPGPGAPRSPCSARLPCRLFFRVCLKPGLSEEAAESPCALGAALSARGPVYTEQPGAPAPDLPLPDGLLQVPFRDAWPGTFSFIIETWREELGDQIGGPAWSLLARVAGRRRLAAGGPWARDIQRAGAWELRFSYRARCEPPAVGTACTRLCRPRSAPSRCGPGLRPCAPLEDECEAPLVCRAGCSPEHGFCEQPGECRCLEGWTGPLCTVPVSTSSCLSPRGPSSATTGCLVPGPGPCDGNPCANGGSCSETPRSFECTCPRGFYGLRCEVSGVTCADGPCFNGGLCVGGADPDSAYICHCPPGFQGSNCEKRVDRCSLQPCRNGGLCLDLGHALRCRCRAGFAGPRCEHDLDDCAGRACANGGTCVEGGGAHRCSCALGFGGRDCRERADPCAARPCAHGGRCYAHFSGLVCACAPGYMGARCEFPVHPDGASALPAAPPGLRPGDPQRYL

B1: 1C07 anti-DLL3 trispecific protein (other)
chain: EVQLVESGGGLVQPGGSLTLSCVASGSTSSINAMAWYRRAPGKQRELVAGISSDGSKVYADSVKGRFTISRDNAKNSVYLQMNSLRAEDTAVYYCYYFRTVSGSSMRYWGQGTLVTVSS
notes: not shown: linker 1808, anti-albumin sdAb, linker 1808, anti-CD3 fragment, His6 1819
B2: 1B04 anti-DLL3 trispecific protein (other)
chain: B1 chain with S27T, A35G, K57L, T100I, S102R
notes: as for B1
B3: 1B01 anti-DLL3 trispecific protein (other)
chain: B1 chain with S30I, A35G, V48A, Y59I, T100R
notes: as for B1
B4: 1B011 anti-DLL3 trispecific protein (other)
chain: B1 chain with S30R, A35G, S102Y
notes: as for B1
B5: 1E04 anti-DLL3 trispecific protein (other)
chain: B1 chain with S30R, A33G, A35G, V48P, V58A, V101A, S104T
notes: as for B1
B6: 1C02 anti-DLL3 trispecific protein (other)
chain: B1 chain with A60S, Y108S
notes: as for B1
B7: 1C01 anti-DLL3 trispecific protein (other)
chain: B1 chain with A35G, A60R, R107G
notes: as for B1
B8: 1B02 anti-DLL3 trispecific protein (other)
chain: B1 chain with A35G, V58I
notes: as for B1
B9: 1C010 anti-DLL3 trispecific protein (other)
chain: B1 chain with S30R, A35G, I51V, R107S
notes: as for B1
B10: 1D03 anti-DLL3 trispecific protein (other)
chain: B1 chain with M34I, A35G, Y59L, T100I, R107G
notes: as for B1
B11: 1A010 anti-DLL3 trispecific protein (other)
chain: B1 chain with M34Y, A35G, S102Y
notes: as for B1
B12: 1A012 anti-DLL3 trispecific protein (other)
chain: B1 chain with A60S, S102L
notes: as for B1
B13: 1A04 anti-DLL3 trispecific protein (other)
chain: B1 chain with A35G, A60E
notes: as for B1
B14: 1F02 anti-DLL3 trispecific protein (other)
chain: B1 chain with V48A, G55Q, V63A, R107S
notes: as for B1
B15: 1F08 anti-DLL3 trispecific protein (other)
chain: B1 chain with A60K, T100N
notes: as for B1
B16: 1B05 anti-DLL3 trispecific protein (other)
chain: B1 chain with F98Y
notes: as for B1
B17: 1B08 anti-DLL3 trispecific protein (other)
chain: B1 chain with S27T, A35G, A60V, T100F
notes: as for B1
B18: 1E011 anti-DLL3 trispecific protein (other)
chain: B1 chain with S27N, A35G, A60Y, S102R, M106Q
notes: as for B1
B19: 1F01 anti-DLL3 trispecific protein (other)
chain: B1 chain with A35G, A60G, G103R
notes: as for B1
B20: 1E07 anti-DLL3 trispecific protein (other)
chain: B1 chain with A60N, S102R, M106Q
notes: as for B1
B21: 1A06 anti-DLL3 trispecific protein (other)
chain: B1 chain with A35G, V48A, K57S, M106K
notes: as for B1
B22: 1E05 anti-DLL3 trispecific protein (other)
chain: B1 chain with S30V, V48A, D61K, V63A, R99N
notes: as for B1
B23: 1A09 anti-DLL3 trispecific protein (other)
chain: B1 chain with V58L, S102Q
notes: as for B1
B24: 1D010 anti-DLL3 trispecific protein (other)
chain: B1 chain with I31N, A60T, V101R
notes: as for B1
B25: 1F04 anti-DLL3 trispecific protein (other)
chain: B1 chain with S27G, A35G, A60S, M106A
notes: as for B1
B26: 1C05 anti-DLL3 trispecific protein (other)
chain: B1 chain with S105H
notes: as for B1
B27: 1A01 anti-DLL3 trispecific protein (other)
chain: B1 chain with S27F, A35G, K57F, T100H
notes: as for B1
B28: 1D06 anti-DLL3 trispecific protein (other)
chain: B1 chain with A35G, G55N, S102H
notes: as for B1
B29: 1A07 anti-DLL3 trispecific protein (other)
chain: B1 chain with T28I, A35G, T100M
notes: as for B1
B30: 1C012 anti-DLL3 trispecific protein (other)
chain: B1 chain with S27I, A35G, D61G, S102R
notes: as for B1
B31: 1A03 anti-DLL3 trispecific protein (other)
chain: B1 chain with M106S
notes: as for B1
B32: 1F05 anti-DLL3 trispecific protein (other)
chain: B1 chain with S29R, A35G, R99H
notes: as for B1
B33: 1D011 anti-DLL3 trispecific protein (other)
chain: B1 chain with G55N, S104H
notes: as for B1
B34: 1E09 anti-DLL3 trispecific protein (other)
chain: B1 chain with A60T, V101R
notes: as for B1
B35: 1D04 anti-DLL3 trispecific protein (other)
chain: B1 chain with I31K, A35G, S104A
notes: as for B1
B36: 1E010 anti-DLL3 trispecific protein (other)
chain: B1 chain with T28V, A35G, A60I, S104L
notes: as for B1
B37: 1D012 anti-DLL3 trispecific protein (other)
chain: B1 chain with S30H, A35G, K57R, S104G
notes: as for B1
B38: 1B09 anti-DLL3 trispecific protein (other)
chain: B1 chain with A60V
notes: as for B1
B39: 1B07 anti-DLL3 trispecific protein (other)
chain: B1 chain with T28G, A35G, A60S, T100H
notes: as for B1
B40: 1D02 anti-DLL3 trispecific protein (other)
chain: B1 chain with D54N, T100Q
notes: as for B1
B41: 1F09 anti-DLL3 trispecific protein (other)
chain: B1 chain with S27N, A35G, D54N, S102T
notes: as for B1
B42: 1D09 anti-DLL3 trispecific protein (other)
chain: B1 chain with A60T, V101I
notes: as for B1
B43: 1C011 anti-DLL3 trispecific protein (other)
chain: B1 chain with S27T, A35G, A60E
notes: as for B1
B44: 1B010 anti-DLL3 trispecific protein (other)
chain: B1 chain with S30R, A35G, V101K
notes: as for B1
B45: 1F07 anti-DLL3 trispecific protein (other)
chain: B1 chain with A35G, Y59D
notes: as for B1
B46: 1E02 anti-DLL3 trispecific protein (other)
chain: B1 chain with S27Q, A35G, K57Q, V101K
notes: as for B1
B47: 1C08 anti-DLL3 trispecific protein (other)
chain: B1 chain with S30R, A35G, V48P, D61V, S105P
notes: as for B1
B48: 1B03 anti-DLL3 trispecific protein (other)
chain: B1 chain with S27K, A60T, M106A
notes: as for B1
B49: 1C06 anti-DLL3 trispecific protein (other)
chain: B1 chain with S30I, A35G, A60E, T100A
notes: as for B1
B50: 1A05 anti-DLL3 trispecific protein (other)
chain: B1 chain with T28P, A35G, V48S, S102R, R107S
notes: as for B1
B51: 1E08 anti-DLL3 trispecific protein (other)
chain: B1 chain with S27K, A35G, Y59I, S102L
notes: as for B1
B52: 1F06 anti-DLL3 trispecific protein (other)
chain: B1 chain with S27T, A35G, Y59I, S102L
notes: as for B1
B53: 1C04 anti-DLL3 trispecific protein (other)
chain: B1 chain with S27N
notes: as for B1
B54: 1F010 anti-DLL3 trispecific protein (other)
chain: B1 chain with S30R, A35G, A60K
notes: as for B1
B55: 1E012 anti-DLL3 trispecific protein (other)
chain: B1 chain with I31T, A35G, A60V, R107V
notes: as for B1
B56: 1D01 anti-DLL3 trispecific protein (other)
chain: B1 chain with S30D, A35G, G55K, S102R
notes: as for B1
B57: 1D08 anti-DLL3 trispecific protein (other)
chain: B1 chain with S27L, A35G, T100M
notes: as for B1

target: T1, biotinylated human DLL3 protein …; test: Octet BLI, single 50 nM
Procedure: Using the conditioned medium with known concentrations of the anti-DLL3 trispecific proteins, the binding affinities of the anti-DLL3 trispecific proteins toward human DLL3 protein were measured using a method where biotinylated version of human DLL3 protein were expressed as a human IgG1 fusion protein, and the binding affinity measurement was carried out in an Octet instrument with streptavidin tips.

| Kd [nM] | Binder |
| --- | --- |
| 7.1 | B1 |
| 11 | B2 |
| 5.2 | B3 |
| 5.7 | B4 |
| 8.1 | B5 |
| 6.2 | B6 |
| 4.3 | B7 |
| 11 | B8 |
| 2.5 | B9 |
| 5.8 | B10 |
| 6.5 | B11 |
| 4.9 | B12 |
| 7.8 | B13 |
| 4 | B14 |
| 31 | B15 |
| 8 | B16 |
| 12 | B17 |
| 2.7 | B18 |
| 9.4 | B19 |

| Kd [nM] | Binder |
| --- | --- |
| 7.1 | B20 |
| 5.6 | B21 |
| 14 | B22 |
| 6.6 | B23 |
| 5 | B24 |
| 10 | B25 |
| 5.3 | B26 |
| 7 | B27 |
| 6.8 | B28 |
| 8.6 | B29 |
| 8.5 | B30 |
| 6.3 | B31 |
| 5.8 | B32 |
| 4.4 | B33 |
| 4.4 | B34 |
| 9.7 | B35 |
| 5.7 | B36 |
| 9.3 | B37 |
| 5.4 | B38 |

| Kd [nM] | Binder |
| --- | --- |
| 8.9 | B39 |
| 14 | B40 |
| 35 | B41 |
| 5.2 | B42 |
| 7.6 | B43 |
| 6.8 | B44 |
| 13 | B45 |
| 7 | B46 |
| 25 | B47 |
| 8.7 | B48 |
| 8.3 | B49 |
| 4 | B50 |
| 9.4 | B51 |
| 8.9 | B52 |
| 8.1 | B53 |
| 6.3 | B54 |
| 5.3 | B55 |
| 5.8 | B56 |
| 10 | B57 |
